Measured values published in patent US20250277199, “NOVEL CRISPR-CAS NUCLEASES FROM METAGENOMES” (Brain Biotech AG, published 2025).

Molecular target: T1, BMC03 (uncultured bacterium (metagenome))
T1 chain: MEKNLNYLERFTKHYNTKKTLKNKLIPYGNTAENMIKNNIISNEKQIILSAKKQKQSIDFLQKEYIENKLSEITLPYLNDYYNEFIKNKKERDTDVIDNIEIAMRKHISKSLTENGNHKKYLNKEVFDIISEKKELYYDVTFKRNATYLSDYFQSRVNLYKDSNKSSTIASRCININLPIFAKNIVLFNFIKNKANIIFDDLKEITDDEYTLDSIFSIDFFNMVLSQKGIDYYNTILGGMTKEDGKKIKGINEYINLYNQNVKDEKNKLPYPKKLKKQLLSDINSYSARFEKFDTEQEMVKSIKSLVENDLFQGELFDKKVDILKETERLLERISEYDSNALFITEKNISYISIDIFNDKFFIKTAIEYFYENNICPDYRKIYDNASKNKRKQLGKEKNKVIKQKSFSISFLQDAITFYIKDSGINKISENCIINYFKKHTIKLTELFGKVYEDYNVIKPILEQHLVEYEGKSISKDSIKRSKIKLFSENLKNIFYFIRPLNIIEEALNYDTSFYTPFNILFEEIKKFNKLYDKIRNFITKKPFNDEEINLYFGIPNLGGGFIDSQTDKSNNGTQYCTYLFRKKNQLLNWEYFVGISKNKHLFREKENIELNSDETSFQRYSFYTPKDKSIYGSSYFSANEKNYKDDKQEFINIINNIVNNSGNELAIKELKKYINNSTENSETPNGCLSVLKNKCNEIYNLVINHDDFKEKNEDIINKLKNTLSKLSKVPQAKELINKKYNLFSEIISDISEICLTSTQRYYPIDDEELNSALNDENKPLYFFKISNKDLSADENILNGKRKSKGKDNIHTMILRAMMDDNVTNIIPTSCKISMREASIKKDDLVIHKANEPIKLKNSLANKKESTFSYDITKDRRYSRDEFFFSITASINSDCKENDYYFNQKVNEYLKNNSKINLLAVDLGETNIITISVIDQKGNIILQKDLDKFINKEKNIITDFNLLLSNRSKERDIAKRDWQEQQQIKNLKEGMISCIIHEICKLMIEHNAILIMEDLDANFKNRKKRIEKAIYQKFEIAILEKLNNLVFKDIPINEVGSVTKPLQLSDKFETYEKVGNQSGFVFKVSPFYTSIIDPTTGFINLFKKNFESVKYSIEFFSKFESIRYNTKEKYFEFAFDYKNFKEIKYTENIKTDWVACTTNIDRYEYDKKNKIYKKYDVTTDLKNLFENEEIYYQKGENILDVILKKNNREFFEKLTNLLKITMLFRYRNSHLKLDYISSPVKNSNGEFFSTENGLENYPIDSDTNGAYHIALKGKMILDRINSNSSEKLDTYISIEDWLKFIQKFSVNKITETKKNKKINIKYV
Assay: cell_activity; PAM not stated; E. coli depletion, 30 C
Method in brief: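 E. coli carrying arabinose-induced (0.2%) BMC nuclease, grown at 30° C., made electrocompetent and electroporated with 50-100 ng plasmid carrying gRNA against malQ. Transformants plated on selective M9-glucose agar with kanamycin/ampicillin (± nourseothricin), and growth scored after 48 h at 30° C.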

B1: malQ gRNA (BMC stem-loop + 24 nt spacer) ; malQ protospacer (ssRNA ; dsDNA)
RNA: GAUUUCUACUAUUGUAGAUGUGGCGGUACGUUGAUGCAUCGCG
DNA 1: GTGGCGGTACGTTGATGCATCGCG
DNA 2: CGCGATGCATCAACGTACCGCCAC
  activity: > 99.9 % colony reduction
